T1: Bl_Man38B (Bifidobacterium longum, UniProt Q8G4Q0)
T1 sequence (Q8G4Q0 1-1046): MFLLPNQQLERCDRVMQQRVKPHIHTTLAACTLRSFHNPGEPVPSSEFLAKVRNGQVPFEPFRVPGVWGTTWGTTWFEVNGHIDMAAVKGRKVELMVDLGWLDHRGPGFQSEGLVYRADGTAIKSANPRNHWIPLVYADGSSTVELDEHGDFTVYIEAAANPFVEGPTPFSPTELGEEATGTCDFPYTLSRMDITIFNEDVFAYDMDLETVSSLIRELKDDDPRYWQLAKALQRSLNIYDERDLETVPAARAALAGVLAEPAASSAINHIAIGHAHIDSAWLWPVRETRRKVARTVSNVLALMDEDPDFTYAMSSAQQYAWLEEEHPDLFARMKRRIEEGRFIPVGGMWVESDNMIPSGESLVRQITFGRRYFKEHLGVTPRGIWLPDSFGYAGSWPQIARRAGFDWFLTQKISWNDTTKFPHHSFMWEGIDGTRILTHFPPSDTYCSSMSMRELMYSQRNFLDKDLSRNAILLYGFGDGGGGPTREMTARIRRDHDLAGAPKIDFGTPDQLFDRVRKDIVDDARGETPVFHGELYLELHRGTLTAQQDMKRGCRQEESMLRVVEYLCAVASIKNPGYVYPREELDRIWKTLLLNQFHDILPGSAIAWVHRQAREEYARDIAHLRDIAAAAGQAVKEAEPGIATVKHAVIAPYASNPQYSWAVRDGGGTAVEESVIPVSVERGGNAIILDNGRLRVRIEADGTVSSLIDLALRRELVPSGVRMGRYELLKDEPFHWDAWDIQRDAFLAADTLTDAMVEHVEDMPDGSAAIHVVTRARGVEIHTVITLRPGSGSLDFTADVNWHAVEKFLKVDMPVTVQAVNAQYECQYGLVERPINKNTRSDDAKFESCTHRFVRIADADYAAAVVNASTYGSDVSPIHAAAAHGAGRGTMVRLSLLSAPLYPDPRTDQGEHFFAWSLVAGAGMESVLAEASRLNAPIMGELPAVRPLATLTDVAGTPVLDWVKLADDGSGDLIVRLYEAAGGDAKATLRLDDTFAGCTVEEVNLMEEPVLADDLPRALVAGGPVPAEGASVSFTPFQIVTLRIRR

T2: Bl_Endo85 (Bifidobacterium longum, UniProt Q8G4P3)
T2 sequence (Q8G4P3 38-937): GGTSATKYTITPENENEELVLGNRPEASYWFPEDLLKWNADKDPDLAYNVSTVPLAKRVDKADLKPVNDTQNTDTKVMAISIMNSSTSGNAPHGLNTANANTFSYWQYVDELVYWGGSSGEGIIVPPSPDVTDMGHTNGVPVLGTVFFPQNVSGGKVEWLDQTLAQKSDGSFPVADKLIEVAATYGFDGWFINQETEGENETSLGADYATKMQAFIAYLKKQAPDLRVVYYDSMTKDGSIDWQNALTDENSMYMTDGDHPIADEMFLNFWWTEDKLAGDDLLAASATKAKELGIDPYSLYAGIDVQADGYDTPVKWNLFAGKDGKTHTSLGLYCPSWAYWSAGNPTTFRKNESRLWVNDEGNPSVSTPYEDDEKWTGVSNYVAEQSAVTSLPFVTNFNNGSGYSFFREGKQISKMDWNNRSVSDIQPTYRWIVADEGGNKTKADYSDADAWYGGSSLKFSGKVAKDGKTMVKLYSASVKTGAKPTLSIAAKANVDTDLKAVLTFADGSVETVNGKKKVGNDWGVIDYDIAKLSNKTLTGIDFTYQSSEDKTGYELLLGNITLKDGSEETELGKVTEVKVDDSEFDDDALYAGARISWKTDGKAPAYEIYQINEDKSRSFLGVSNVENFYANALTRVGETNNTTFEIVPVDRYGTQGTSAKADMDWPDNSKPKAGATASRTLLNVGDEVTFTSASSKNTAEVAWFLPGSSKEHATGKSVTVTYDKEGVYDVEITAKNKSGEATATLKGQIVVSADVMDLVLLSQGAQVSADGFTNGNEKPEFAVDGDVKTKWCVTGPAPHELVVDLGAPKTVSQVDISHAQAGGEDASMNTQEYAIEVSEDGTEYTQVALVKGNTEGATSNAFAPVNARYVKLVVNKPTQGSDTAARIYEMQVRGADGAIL

B1: Bl_Man38C, GH38 α-mannosidase from Bifidobacterium longum NCC2705 (enzyme)
chain: MLLKVNREIDRCKRVMRERVWPHIHQVLAQCTVGAVKNPGEPEMPAAFITRAVSGQVIFQPLAVGEPWGTSWGTTWIRVEGQLPETLPEGRAIELVFNLGWLEWPVGGHIEAMAYRADGTVIKALHPRNHWMPLVSADGVKDRVVNPDGSFVVYVEGAYNPNVPSFTVTELGTKPTGKADERYEFSSIDIAALDQDMFDYWADLDVVTGSLENMNDADPRYWKLAKAMQRSINLWDEKDYNTLALARKALDKVMHNPANASAMTLTAMGHSHIDSAWLWPVRETERKVGRTVSNALALMDIDPDFTYVMSAAQHFAWLEERHPDLFERVKARIAEGRFIPVGGMWVESDGTMPCGESLIRQISYGKRYFKEKLGVVPNGIWLPDSFGYTGAWPQIAKRSGYSWFLTQKLCWNDTTRLPHHSFMWEGVDGSQIFTHFPPADKYDSDMSANDMAYVQSNYKDKDLSDRGILLFGYGDGGGGPIREMTMREHRFESFEGMPKVEYGTPDDFFSKAETEMKAEAGSEMPRWKGEFYFELHRKTLTSQQEMKRGCRKEESMLRTVEYLGVVASLESADYVYPTERIDRIWKTLLLSQFHDILPGSAIEWAHRVAREEYARDLKALSDIARDAIAAIAVANPDVARIAKARISQFADVDPWRPASLVSCGEPVEVNRREDGSATLDNGLLCVHVAADGTVDSMIDLKSGREMVAKDHVMGRYEILKDEPGVFDAWDVERDAFLCATALADGHIVSIETTADGSAVIVTKNSYRDDEISTTITLRPGKSQLDFHADVEWNVPEKLLKVDIPMALSASRAQYECQYGLIERPIVKNTEGEEAMFESCSHRFVRIHDSSYGIGVANGSTYGSDVSSLRDRDDALAGTMVRMSLVAAPTAPDPRTDIGHHEFDWTVLPCASVAPLVAAAGEINAPTIENMPDIAAPITLEPIEGTPVIDWIKLADDGSGDIVARLYEAAGAKAKAMLHVGGTLDGWTVRETNTLEQDESYPDEPAGLIGGKQQAEGAELALNPFQLTTLRLSRA
B2: Bl_Man38A, GH38 α-mannosidase from Bifidobacterium longum NCC2705 (enzyme)
chain: MFLKPEQQLERCRRIVRQRVDPHIHPSIAQLTVESYDIPGEPMPSDEFFAKLDRGDIDFKPFMLGSEWGTTWGTVWFRLTGTVPAGYPKGKPLELILDLGWYPHSCGGHIEGLVYRADGTAIKAVHPLNYWVPFMDAEGNAQVPVAEDGSFTLYLEAASNPLLLGVPPFIETELGDHATGKPDEPYVFKSADLAEFDERYENYSVDLDVVSSLMEFADKQSPRYWQLAKALQRSLNAYDERNPESVEAARAVLAGVLAKPANASAMNVSAIGHAHIDSAWLWPVRETRRKVARTVSNALALMDADPDFKYAMSSAQQYAWLEEDHPDIFKRMKRRIEEGRFIPVGGMWVEADGMLPAGESLIRQIAYGRKYFKEHLGVEPKGVWLPDSFGYTGAWPQIARRAGYEWFLTQKISWNDTTKFPHHSFMWEGIDGSRIFTHFPPADTYAAWCKVQELDYAEKNFQDKDLSDRSLLLFGFGDGGGGPTRNMMEHLHRYENLEGVSKVSIEEPNDFFDKAHQQLAENAGPEMPVWKGELYLELHRGTLTSQQDMKRGCRQEESLLRTVEYLGAAAVLSDPEYVYPREELDRIWKTLLLNQFHDILPGSAIAWVHREAREDYRRDLKRLAEIAQDMCAVLRKANPQADLLAEARISQFRNDGASWHANRINEPTDALSVLTQTLDNGRVLLANGVLSVTIEADGTISSLLDEEHGRELVPAGTRLGQYELLRDEPAVWDAWEIERESLLMANAVTGSIESVNTENGAAQVHVHTADGDTVITTTITLRPGSHTLDFHADIDWHERERFLKVDLPLGIVADQATYDCQYGLIRRPIVKNTASDEAKYESSTNRFAIIGDAGYAAAVINGSVYGSDASPIAGNAAEGRDSGTMFRLSLLSAPTFPDPRTDIGSHEFDWSVVADATVDRALDAAGVLNAPVLHDVPDITPLASIESVNGTVVLDWMKLADDGSGDLIVRAYEAAGGQADAMLHVCPALAGASVHETNVLEGDDLAADLPVALQDGRQNAEGATLHFGPFQLATLRITR
B3: Bl_Man38B, GH38 α-mannosidase from Bifidobacterium longum NCC2705 (enzyme)
chain: T1 sequence (Q8G4Q0 1-1046)

Key:
Bl_Man38B = molecular target: T1, Bl_Man38B; experiment: LC-MS hydrolysis kinetics; assay type: biochemical; conditions: pH 5.5, 37 °C, 0.1 mM CoCl2
Bl_Endo85 = molecular target: T2, Bl_Endo85; experiment: LC-MS; assay type: biochemical; conditions: 150 mM ammonium acetate pH 5.0, 37 °C, 16 h; product GlcMan9GlcNAc
cryo-EM structure = molecular target: the molecule itself; experiment: cryo-EM structure

Molecule	stoichiometry N (cryo-EM structure)	other results
OC[C@H]1O[C@H](O[C@H]2[C@H](O)[C@@H](CO)OC(O)[C@H]2O)[C@@H](O)[C@@H](O)[C@@H]1O (stereo partly drawn) [α-1,3-mannobiose]		Km (Bl_Man38B): Bl_Man38B was efficient over the three disaccharides
CC(=O)N[C@H]1[C@H](O[C@H]2[C@H](O)[C@@H](NC(C)=O)C(O)O[C@@H]2CO)O[C@H](CO)[C@@H](O[C@@H]2O[C@H](CO[C@H]3O[C@H](CO[C@H]4O[C@H](CO)[C@@H](O)[C@H](O)[C@@H]4O[C@H]4O[C@H](CO)[C@@H](O)[C@H](O)[C@@H]4O)[C@@H](O)[C@H](O[C@H]4O[C@H](CO)[C@@H](O)[C@H](O)[C@@H]4O[C@H]4O[C@H](CO)[C@@H](O)[C@H](O)[C@@H]4O)[C@@H]3O)[C@@H](O)[C@H](O[C@H]3O[C@H](CO)[C@@H](O)[C@H](O)[C@@H]3O[C@H]3O[C@H](CO)[C@@H](O)[C@H](O)[C@@H]3O[C@H]3O[C@H](CO)[C@@H](O)[C@H](O[C@H]4O[C@H](CO)[C@@H](O)[C@H](O)[C@H]4O)[C@@H]3O)[C@@H]2O)[C@@H]1O (some centres unmarked) [GlcMan9GlcNAc2]		LC-MS (Bl_Endo85): Reaction of Bl_Endo85 against GlcMan9GlcNAc2, generating GlcMan9GlcNAc
B1	4	
B2	4	
B3	4	

Reference: PMC10367113 (Nature chemical biology, 2022)
